Assay results: US12479895B2, “C-terminal CDNF and MANF fragments, pharmaceutical compositions comprising same and uses thereof” (MyNeuroCure Oy, priority 2018, dated 2025)

Experiments:
[1] = tested on: SOD1-G93A mouse ALS model; assay: SOD1-G93A mouse model of ALS; type: in vivo
Text: Transgenic SOD1 G93A mice served as a transgenic mouse model for ALS in this study. Transgenic mice containing various human SOD1 mutations develop progressive neurodegeneration and motoneuron (MN) death, providing an animal model that has been commonly used for preclinical trials and that has greatly contributed to the understanding of FALS pathogenesis (Gurney et al., 1994). […] In these mice hind limb weakness and tremulous movement appear as initial symptoms at 8-10 week of age, followed by major symptoms such as progressive motor paralysis and neurogenic amyotrophy (Shibata 2001). These mice subsequently show disability of gait, eating and drinking and die within some weeks, usually at 14-16 week of age. The transgenic mice carrying the human SOD1 with the glycine93 to alanine mutated were originally obtained from The Jackson Laboratory (http://www.jax.org), Bar Harbor, ME; Strain B6SJL-TgN (SOD1-G93A) 1Gur). Transgenic expression was analyzed by DNA tail tests and PCR, using specific oligonucleotides and conditions as done previously by others (see homepage Jackson Lab). In all the experiments the wild-type B6SJL-TgN (SOD1) 2Gur were included as controls.
In the single administration experiment, mice at around 13 weeks of age received a single intracerebroventricular injection of PBS or C-CDNF (3.75 μg that is equimolar to full-length CDNF 10 μg diluted in PBS) under isofluorane anesthesia. Mice were then evaluated for signs of disease and body weight changes twice a week. Evaluation was completed by a battery of behavioral tests designed to assess motor activity in the mice; the battery comprises tests e.g rotarod.
In the chronic infusion experiment, 12-week-old SOD1 mice were inserted a brain infusion cannula (connected via catheter-tubing to an Alzet osmotic minipump) to the right lateral ventricle under isoflurane anesthesia. C-CDNF (1.5 μg/24 h) was infused for 28 days. Motor behavior was evaluated with rotarod. Mice were evaluated for clinical signs and body weight changes.
Clinical scoring for SOD1 mice was done using instructions from Jackson laboratory. The mice were carefully examined 2 times a week after they were 12 weeks old. Animals were scored by lifting them gently by the base of their tails and observing them for tremors, stiffness and their ability to extend their limbs. The clinical scoring is on a scale of 1 to 5, based on ALSTDI (ALS therapy Development Institute) hind limb neurological scoring system.
In rotarod, mice were put to a rotating rod (accelerating speed 4-40 rpm/minute), (Ugo Basile, Italy). Cut off time was 4 minutes. Rotarod test was done 2 times a week after the mice were 12 weeks old.

[2] = tested on: rat 6-OHDA model of PD; assay: Neurorestoration study in 6-OHDA model of PD in rats; type: in vivo; conditions: injected intrastriatally 2 weeks after 6-OHDA lesioning; rotations at 2, 4, 6 and 8 weeks post-lesion
[3] = tested on: ER stressed SCG neurons; assay: Survival of tunicamycin-treated (ER stressed) SCG sympathetic neurons after microinjection; type: cell-based, mice; conditions: for survived neurons as % compared to neurons grown in the presence of NGF: Table 1A (FIG. 14), microinjected into cytoplasm, CDNF (400); for Fold change of survived neurons compared to neurons injected with PBS: data of Table 1 divided by values of PBS
How it was run: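 Newborn mouse SCG neurons grown 5-6 days with 30 ng/ml NGF, then microinjected with CDNF (FL or C-terminal) plasmids (10 ng/ul, EGFP reporter) or proteins (200 ng/ul, Dextran Texas Red). Tunicamycin (2 μM) added next day. Fluorescent survivors counted blindly after 3 days as % of initial; compared with vector or PBS (ANOVA/Dunnett).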

[4] = rat, in vivo, sc
Description: CDNF, C-CDNF and C-MANF were iodinated with ^125I-Na using the lactoperoxidase method. The protein in question was dissolved in 30 μl of 0.25 M phosphate buffer, pH 7.5, and mixed with ^125I-Na (1 mCi/2.8 μl; 1 mCi=37 mBq; GE Healthcare). The reaction was started by adding lactoperoxidase 10 μl of 50 μg/ml and 0.05% H2O2. The mixture was incubated at room temperature for 20 min and the reaction was stopped by adding 3 volumes of 0.1 M phosphate buffer, pH 7.5, containing 0.1 M NaI, 0.42 M NaCl, and then 25 μl of 2.5% BSA was added. Free iodine and iodinated protein were separated by gel filtration on Sephadex G-25 columns (PM10; GE Healthcare). For column equilibrium and elution, 0.1 M phosphate buffer, pH 7.5, with 1% BSA was used. The iodinated growth factors were sometimes concentrated by using YM-10 Centricon columns (Millipore). The specific activity of ^125I-labeled CDNF, C-CDNF and C-MANF was measured on the Wizard 3 1480 Automatic Gamma Counter (Perkin Elmer, Wallac) and was about 10^8 cpm/μg protein. The labelled protein were kept at 4° C. and used within 3 weeks after labelling.
^125I-CDNF, ^125I C-CDNF or ^125I C-MANF (all proteins at 10^6 cpm in 10 μl) were injected subcutaneously to adult male Wistar rats. […] Radioactivity was analyzed in different brain regions by gamma counter. […] The differences between groups were analyzed ANOVA followed by Tukey-Kramers post hoc test.

B1: KYEKTLDLASVDLRKMRVAELKQILHSWGEECRACAEKTDYVNLIQELAPKYAATHPKTEL (peptide, listed as Homo sapiens)
chain: KYEKTLDLASVDLRKMRVAELKQILHSWGEECRACAEKTDYVNLIQELAPKYAATHPKTEL
[1]; 4-week chronic intracerebroventricular infusion 1.5 μg/24 h, significant week 13 until week 19, p<0.01
  motor coordination (rotarod performance): improves motor coordination
[1]; 4-week chronic intracerebroventricular infusion 1.5 μg/24 h, weeks 18 and 19, p<0.05 vs PBS
  relative changes in body weight: Significant differences
[1]; single intracerebroventricular injection 3.75 μg at 13 weeks, SOD1-G93A females, vs PBS
  motor behavior (rotarod, latency to fall): improves the motor behavior
[1]; single intracerebroventricular injection 3.75 μg at the age of 13 weeks, female animals, vs PBS
  clinical score: statistically significantly better clinical scores
[2]
  cumulative amount of amphetamine-induced rotations: significantly reduces
[3]; AVG of exp1-2, tunicamycin 2 μM
  survived neurons as % compared to neurons grown in the presence of NGF: 84.37 % NGF
[3]; exp1, tunicamycin 2 μM, counted after 3 days
  survived neurons as % compared to neurons grown in the presence of NGF: 78.87 % NGF
[3]; exp2, tunicamycin 2 μM, counted after 3 days
  survived neurons as % compared to neurons grown in the presence of NGF: 89.87 % NGF
[3]; Table 2, AVG
  Fold change of survived neurons compared to neurons injected with PBS: 2.28 Fold to PBS
[3]; Table 2, exp1
  Fold change of survived neurons compared to neurons injected with PBS: 2.30 Fold to PBS
[3]; Table 2, exp2
  Fold change of survived neurons compared to neurons injected with PBS: 2.26 Fold to PBS
[3]; expressed from microinjected plasmids, tunicamycin 2 μM, living fluorescent neurons counted after three days
  rescue of ER stressed SCG sympathetic neurons (result in words): rescue
[3]; protein or peptide microinjected into the cytoplasm, tunicamycin 2 μM, living fluorescent neurons counted after 3 days
  rescue of ER stressed SCG neurons (result in words): rescue
[4]
  blood-brain-barrier penetration: capable of penetrating
